Reference: patent publication US20240400635A1

Target: FGF receptor/BKL complex (human) (UniProt Q86Z14)
Test: cell-based or functional assay

Chain of FGF receptor/BKL complex (human) (Q86Z14 whole entry, one chain of several): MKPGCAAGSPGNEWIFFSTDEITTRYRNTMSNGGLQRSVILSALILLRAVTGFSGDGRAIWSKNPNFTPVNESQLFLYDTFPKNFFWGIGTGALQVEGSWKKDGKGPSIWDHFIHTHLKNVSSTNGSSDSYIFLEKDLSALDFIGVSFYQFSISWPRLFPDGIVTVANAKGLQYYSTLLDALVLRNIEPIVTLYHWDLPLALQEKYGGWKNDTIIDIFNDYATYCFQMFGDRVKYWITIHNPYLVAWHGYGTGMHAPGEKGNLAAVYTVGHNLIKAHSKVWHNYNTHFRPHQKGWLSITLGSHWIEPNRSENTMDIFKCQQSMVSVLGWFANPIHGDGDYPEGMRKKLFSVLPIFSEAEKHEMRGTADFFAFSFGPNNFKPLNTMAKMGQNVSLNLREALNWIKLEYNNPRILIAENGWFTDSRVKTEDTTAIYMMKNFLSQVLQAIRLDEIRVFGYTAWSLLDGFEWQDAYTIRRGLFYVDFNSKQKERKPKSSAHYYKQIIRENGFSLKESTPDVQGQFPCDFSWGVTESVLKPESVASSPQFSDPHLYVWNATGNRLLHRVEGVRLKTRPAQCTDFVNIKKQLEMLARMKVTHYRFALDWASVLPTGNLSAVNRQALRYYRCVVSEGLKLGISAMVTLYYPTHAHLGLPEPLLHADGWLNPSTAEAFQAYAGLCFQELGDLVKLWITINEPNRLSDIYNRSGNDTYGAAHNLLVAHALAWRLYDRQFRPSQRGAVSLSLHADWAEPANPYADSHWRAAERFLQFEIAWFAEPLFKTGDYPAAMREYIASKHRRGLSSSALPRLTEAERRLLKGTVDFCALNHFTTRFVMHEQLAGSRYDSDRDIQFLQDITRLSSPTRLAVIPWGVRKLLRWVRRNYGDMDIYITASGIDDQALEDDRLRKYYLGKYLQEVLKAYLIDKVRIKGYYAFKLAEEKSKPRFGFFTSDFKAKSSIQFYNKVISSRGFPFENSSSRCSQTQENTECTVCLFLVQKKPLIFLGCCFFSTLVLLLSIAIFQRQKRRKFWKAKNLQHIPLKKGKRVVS

FGF1 receptor potency [EC50] nM 0.1% HSA [nM] | FGF21 receptor potency [EC50] nM 0% HSA [nM] | Substance
0.44 | 0.52 | Met-FGF21 (Comparator) SEQ ID NO: 36 (from UniProt Q9NSA1 29-209) (ligand)
10.1 | 2.5 | S{Beta-180}-[2-[2-[[2-[2-[2-[[2-[2-[2-[[(4S)-4-carboxy-4-(17-carboxyheptadecanoyl-amino)butanoyl]amino]ethoxy]ethoxy]acetyl]amino]ethoxy]ethoxy]acetyl]amino]-ethylamino]-2-oxoethyl]-Ala[Gln121,Leu168,Cys180]FGF21(1-181) (from UniProt Q9NSA1 28-209) (ligand)
